± gives the uncertainty stated by the source.
B1: Tumor protein 63, residues 545 to 610; numbered along this chain, Q9H3D4 (parent)
chain: TDCSIVSFLARLGCSSCLDYFTTQGLTTIYQIEHYSMDDLASLKIPEQFRHAIWKGILDHRQLHEF

Variants of: B1
Test: abundance fitness (aPCA) (normalised: wild type 0, dead -1); higher = more abundant; growth selection in yeast, the domain comes from the species named
Details: Homo sapiens

Variant | abundance fitness
TDCSIVSFLARLGCSSCLDYFTTQGLTTIYQIEHYSMADLASLKIPEQFRHAIWKGILDHRQLHEF [D38A] | -0.01 ± 0.031
TDCSIVSFLARLGCSSCLDYFTTQGLTTIYQIEHYSMRDLASLKIPEQFRHAIWKGILDHRQLHEF [D38R] | -0.03 ± 0.022
TDCSIVSFLARLGCSSCLDYFTTQGLTTIYQIEHYSMSDLASLKIPEQFRHAIWKGILDHRQLHEF [D38S] | -0.029 ± 0.042
TDCSIVSFLARLGCSSCLDYFTTQGLTTIYQIEHYSMMDLASLKIPEQFRHAIWKGILDHRQLHEF [D38M] | 0.048 ± 0.26
TDCSIVSFLARLGCSSCLDYFTTQGLTTIYQIEHYSMYDLASLKIPEQFRHAIWKGILDHRQLHEF [D38Y] | -0.055 ± 0.086
TDCSIVSFLARLGCSSCLDYFTTQGLTTIYQIEHYSMFDLASLKIPEQFRHAIWKGILDHRQLHEF [D38F] | -0.07 ± 0.15
TDCSIVSFLARLGCSSCLDYFTTQGLTTIYQIEHYSMNDLASLKIPEQFRHAIWKGILDHRQLHEF [D38N] | -0.071 ± 0.078
TDCSIVSFLARLGCSSCLDYFTTQGLTTIYQIEHYSMQDLASLKIPEQFRHAIWKGILDHRQLHEF [D38Q] | -0.026 ± 0.045
TDCSIVSFLARLGCSSCLDYFTTQGLTTIYQIEHYSMVDLASLKIPEQFRHAIWKGILDHRQLHEF [D38V] | 0.01 ± 0.032
TDCSIVSFLARLGCSSCLDYFTTQGLTTIYQIEHYSMKDLASLKIPEQFRHAIWKGILDHRQLHEF [D38K] | -0.035 ± 0.13
TDCSIVSFLARLGCSSCLDYFTTQGLTTIYQIEHYSMPDLASLKIPEQFRHAIWKGILDHRQLHEF [D38P] | -0.105 ± 0.051
TDCSIVSFLARLGCSSCLDYFTTQGLTTIYQIEHYSMEDLASLKIPEQFRHAIWKGILDHRQLHEF [D38E] | 0.004 ± 0.051
TDCSIVSFLARLGCSSCLDYFTTQGLTTIYQIEHYSMCDLASLKIPEQFRHAIWKGILDHRQLHEF [D38C] | -0.082 ± 0.06
TDCSIVSFLARLGCSSCLDYFTTQGLTTIYQIEHYSMIDLASLKIPEQFRHAIWKGILDHRQLHEF [D38I] | -0.077 ± 0.031
TDCSIVSFLARLGCSSCLDYFTTQGLTTIYQIEHYSMTDLASLKIPEQFRHAIWKGILDHRQLHEF [D38T] | -0.033 ± 0.03
TDCSIVSFLARLGCSSCLDYFTTQGLTTIYQIEHYSMLDLASLKIPEQFRHAIWKGILDHRQLHEF [D38L] | -0.039 ± 0.034
TDCSIVSFLARLGCSSCLDYFTTQGLTTIYQIEHYSMWDLASLKIPEQFRHAIWKGILDHRQLHEF [D38W] | -0.085 ± 0.04
TDCSIVSFLARLGCSSCLDYFTTQGLTTIYQIEHYSMGDLASLKIPEQFRHAIWKGILDHRQLHEF [D38G] | -0.021 ± 0.034
TDCSIVSFLARLGCSSCLDYFTTQGLTTIYQIEHYSMDALASLKIPEQFRHAIWKGILDHRQLHEF [D39A] | -0.108 ± 0.03
TDCSIVSFLARLGCSSCLDYFTTQGLTTIYQIEHYSMDVLASLKIPEQFRHAIWKGILDHRQLHEF [D39V] | -0.265 ± 0.032
TDCSIVSFLARLGCSSCLDYFTTQGLTTIYQIEHYSMDWLASLKIPEQFRHAIWKGILDHRQLHEF [D39W] | -0.554 ± 0.03

Variant | abundance fitness
TDCSIVSFLARLGCSSCLDYFTTQGLTTIYQIEHYSMDPLASLKIPEQFRHAIWKGILDHRQLHEF [D39P] | -0.864 ± 0.081
TDCSIVSFLARLGCSSCLDYFTTQGLTTIYQIEHYSMDYLASLKIPEQFRHAIWKGILDHRQLHEF [D39Y] | -0.437 ± 0.042
TDCSIVSFLARLGCSSCLDYFTTQGLTTIYQIEHYSMDELASLKIPEQFRHAIWKGILDHRQLHEF [D39E] | -0.047 ± 0.048
TDCSIVSFLARLGCSSCLDYFTTQGLTTIYQIEHYSMDQLASLKIPEQFRHAIWKGILDHRQLHEF [D39Q] | -0.032 ± 0.044
TDCSIVSFLARLGCSSCLDYFTTQGLTTIYQIEHYSMDFLASLKIPEQFRHAIWKGILDHRQLHEF [D39F] | -0.478 ± 0.037
TDCSIVSFLARLGCSSCLDYFTTQGLTTIYQIEHYSMDILASLKIPEQFRHAIWKGILDHRQLHEF [D39I] | -0.449 ± 0.07
TDCSIVSFLARLGCSSCLDYFTTQGLTTIYQIEHYSMDHLASLKIPEQFRHAIWKGILDHRQLHEF [D39H] | -0.163 ± 0.049
TDCSIVSFLARLGCSSCLDYFTTQGLTTIYQIEHYSMDTLASLKIPEQFRHAIWKGILDHRQLHEF [D39T] | -0.124 ± 0.036
TDCSIVSFLARLGCSSCLDYFTTQGLTTIYQIEHYSMDRLASLKIPEQFRHAIWKGILDHRQLHEF [D39R] | -0.171 ± 0.02
TDCSIVSFLARLGCSSCLDYFTTQGLTTIYQIEHYSMDKLASLKIPEQFRHAIWKGILDHRQLHEF [D39K] | -0.093 ± 0.031
TDCSIVSFLARLGCSSCLDYFTTQGLTTIYQIEHYSMDSLASLKIPEQFRHAIWKGILDHRQLHEF [D39S] | -0.143 ± 0.029
TDCSIVSFLARLGCSSCLDYFTTQGLTTIYQIEHYSMDLLASLKIPEQFRHAIWKGILDHRQLHEF [D39L] | -0.238 ± 0.025
TDCSIVSFLARLGCSSCLDYFTTQGLTTIYQIEHYSMDDRASLKIPEQFRHAIWKGILDHRQLHEF [L40R] | -1.01 ± 0.067
TDCSIVSFLARLGCSSCLDYFTTQGLTTIYQIEHYSMDDAASLKIPEQFRHAIWKGILDHRQLHEF [L40A] | -0.967 ± 0.06
TDCSIVSFLARLGCSSCLDYFTTQGLTTIYQIEHYSMDDFASLKIPEQFRHAIWKGILDHRQLHEF [L40F] | -0.043 ± 0.048
TDCSIVSFLARLGCSSCLDYFTTQGLTTIYQIEHYSMDDGASLKIPEQFRHAIWKGILDHRQLHEF [L40G] | -0.993 ± 0.041
TDCSIVSFLARLGCSSCLDYFTTQGLTTIYQIEHYSMDDSASLKIPEQFRHAIWKGILDHRQLHEF [L40S] | -0.701 ± 0.038
TDCSIVSFLARLGCSSCLDYFTTQGLTTIYQIEHYSMDDTASLKIPEQFRHAIWKGILDHRQLHEF [L40T] | -0.933 ± 0.078
TDCSIVSFLARLGCSSCLDYFTTQGLTTIYQIEHYSMDDQASLKIPEQFRHAIWKGILDHRQLHEF [L40Q] | -0.909 ± 0.08
TDCSIVSFLARLGCSSCLDYFTTQGLTTIYQIEHYSMDDMASLKIPEQFRHAIWKGILDHRQLHEF [L40M] | -0.134 ± 0.041

Source: the Human Domainome abundance scans (Beltran et al. 2025)
